These results are taken from PMC3467072.

By stoichiometry N is commonly meant the number of molecules, sites or subunits per partner or assembly.

Series [1] has as its target T1, Rv3066 (TetR-family regulator) (Mycobacterium tuberculosis H37Rv) (UniProt I6X658).
T1 sequence: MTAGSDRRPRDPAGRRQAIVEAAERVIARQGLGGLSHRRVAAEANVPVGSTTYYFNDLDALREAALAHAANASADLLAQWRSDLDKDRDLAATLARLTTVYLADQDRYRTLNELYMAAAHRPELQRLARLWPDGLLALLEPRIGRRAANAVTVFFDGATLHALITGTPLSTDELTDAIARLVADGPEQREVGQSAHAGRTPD
Briefly: DNase I footprinting.

Series [2] deals with Rv3066 regulator, full-length, with a 6xHis tag at the C-terminus (Mycobacterium tuberculosis strain H37Rv) (UniProt I6X658). Briefly: crystal structure.

“TCGAGATCTTTCACCATGACACGACGTTACGGGGATCGACCGCGCGAACGCTGGGCGGATTTTGTCTCCCACCGGTGTGCCTACTCACGTGTGGACGCACGAGCCTCCTTTGTGTACATTTGTACACAAAGGAGGGGTCTTGATCTACCTATACCTCTTGTGCGCGATCTTCGCGGAAGTGGTGGCAACCAGCCTGCTCAAAAGCACGGAAGGGTTCACTCGGTTG (double strand) [226-bp mmr promoter probe (IR1, IR2 removed)]”: in series [1], the binding result was “binds”.

Take “Rv3066 regulator, full-length, with a 6xHis tag at the C-terminus (from UniProt I6X658 1-202) (natural protein)”: the stoichiometry N in series [2] was determined as 2.
